The values below come from PMC3669278, “An Iron 13S-Lipoxygenase with an α-Linolenic Acid Specific Hydroperoxidase Activity from Fusarium oxysporum” (PLoS ONE, 2013).

The target in one series is T1, FoxLOX (Fusarium oxysporum, UniProt A0A0J9UTC2).
T1 construct: gene FOXG_04807; full-length ORF, 744 residues, in pET28a with N-terminal hexa-His tag (removal not mentioned); E. coli Bl21star; non-heme iron; iron-ligand residues His-408, His-413, His-595, Asp-599, Ile-744
T1 sequence (A0A0J9UTC2 1-744): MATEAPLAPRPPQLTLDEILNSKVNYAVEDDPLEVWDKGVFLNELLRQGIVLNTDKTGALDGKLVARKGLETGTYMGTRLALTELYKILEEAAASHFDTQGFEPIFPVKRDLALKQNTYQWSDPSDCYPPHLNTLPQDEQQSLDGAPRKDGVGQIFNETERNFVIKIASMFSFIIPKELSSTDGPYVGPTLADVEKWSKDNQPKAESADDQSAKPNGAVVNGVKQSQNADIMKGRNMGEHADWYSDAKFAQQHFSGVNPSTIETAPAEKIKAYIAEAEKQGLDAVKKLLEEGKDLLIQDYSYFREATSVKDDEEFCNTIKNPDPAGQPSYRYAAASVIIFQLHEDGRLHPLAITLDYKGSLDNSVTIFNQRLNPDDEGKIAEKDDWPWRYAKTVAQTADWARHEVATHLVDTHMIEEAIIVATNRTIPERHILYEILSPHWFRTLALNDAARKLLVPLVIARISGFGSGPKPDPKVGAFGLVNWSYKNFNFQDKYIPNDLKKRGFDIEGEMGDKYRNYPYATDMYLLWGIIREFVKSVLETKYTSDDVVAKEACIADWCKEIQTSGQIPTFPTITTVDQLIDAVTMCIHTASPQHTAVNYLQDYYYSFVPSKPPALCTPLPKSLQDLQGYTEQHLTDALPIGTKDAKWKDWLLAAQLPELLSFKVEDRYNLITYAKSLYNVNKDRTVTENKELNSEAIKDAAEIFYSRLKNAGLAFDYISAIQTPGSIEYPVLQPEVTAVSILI
The series is described as follows: initial rate of conjugated diene formation at […] nm, Michaelis-Menten fit. In kind it is biochemical. The conditions noted are these: 50 mM Tris/HCl pH 8.0, room temperature, air-equilibrated, fatty acid sodium salt.

For series [1], the target named is FoxLOX (Fusarium oxysporum lipoxygenase, iron 13S-lipoxygenase) (Fusarium oxysporum f. sp. lycopersici strain 4287). The series can be described thus: SEC; S200pg 26/60 column; 50 mM Tris/HCl pH 8.0, 10% glycerol, 125 mM NaCl; affinity-purified FoxLOX; apparent mass about 173 kDa against about 80 kDa by SDS-PAGE and 83.5 kDa theoretical. (In gel filtration, larger molecules generally elute earlier.)

Substrate in the series “purified protein”: CCCCC/C=C\C/C=C\C/C=C\C/C=C\CCCC(=O)O
The series is described as follows: purified protein. The note with it: 50 mM Tris/HCl pH 8.0, room temperature, air-equilibrated, fatty acid sodium salt. In kind it is biochemical, Fusarium oxysporum.

As usually defined, the Km is the concentration of substrate that gives half-maximal velocity. Regarding `CCCCC/C=C\C/C=C\CCCCCCCC(=O)O` [18∶2(n-6)], the Km at FoxLOX turned out to be 6.89 ± 0.79 µM.

For orientation: stoichiometry N means a count of units in the complex or per binding partner. With “FoxLOX (Fusarium oxysporum lipoxygenase, iron 13S-lipoxygenase) (enzyme)”, the stoichiometry N in series [1] amounted to 2.

For the molecule `CC/C=C\C/C=C\C/C=C\CCCCCCCC(=O)O` [18∶3(n-3)], on FoxLOX, the Michaelis constant (Km) turned out to be 31.7 ± 3.79 µM.

For the molecule `CCCCC/C=C\C/C=C\C/C=C\CCCCC(=O)O` [18∶3(n-6)], at FoxLOX, the Km was 34.8 ± 5.38 µM.

B1: FoxLOX (Fusarium oxysporum f. sp. lycopersici 4287) (protein)
chain: MATEAPLAPRPPQLTLDEILNSKVNYAVEDDPLEVWDKGVFLNELLRQGIVLNTDKTGALDGKLVARKGLETGTYMGTRLALTELYKILEEAAASHFDTQGFEPIFPVKRDLALKQNTYQWSDPSDCYPPHLNTLPQDEQQSLDGAPRKDGVGQIFNETERNFVIKIASMFSFIIPKELSSTDGPYVGPTLADVEKWSKDNQPKAESADDQSAKPNGAVVNGVKQSQNADIMKGRNMGEHADWYSDAKFAQQHFSGVNPSTIETAPAEKIKAYIAEAEKQGLDAVKKLLEEGKDLLIQDYSYFREATSVKDDEEFCNTIKNPDPAGQPSYRYAAASVIIFQLHEDGRLHPLAITLDYKGSLDNSVTIFNQRLNPDDEGKIAEKDDWPWRYAKTVAQTADWARHEVATHLVDTHMIEEAIIVATNRTIPERHILYEILSPHWFRTLALNDAARKLLVPLVIARISGFGSGPKPDPKVGAFGLVNWSYKNFNFQDKYIPNDLKKRGFDIEGEMGDKYRNYPYATDMYLLWGIIREFVKSVLETKYTSDDVVAKEACIADWCKEIQTSGQIPTFPTITTVDQLIDAVTMCIHTASPQHTAVNYLQDYYYSFVPSKPPALCTPLPKSLQDLQGYTEQHLTDALPIGTKDAKWKDWLLAAQLPELLSFKVEDRYNLITYAKSLYNVNKDRTVTENKELNSEAIKDAAEIFYSRLKNAGLAFDYISAIQTPGSIEYPVLQPEVTAVSILI
notes: full-length ORF, 744 residues, in pET28a with N-terminal hexa-His tag (removal not mentioned); E. coli Bl21star; non-heme iron; iron-ligand residues His-408, His-413, His-595, Asp-599, Ile-744
The kcat is the number of substrate molecules converted per active site and unit of time at saturation. One may read the kcat/Km as the turnover number divided by the Michaelis constant. Take B1: in “purified protein”, the Km turned out to be 3.37 ± 0.55 µM, the kcat stood at 1.71 ± 0.0632 s⁻¹ and the kcat/Km was 507000 M⁻¹ s⁻¹.
